In patent US9403875B2, “Cage-like bifunctional chelators, copper-64 radiopharmaceuticals and PET imaging using the same” (UNIVERSITY OF SOUTHERN CALIFORNIA, priority 2009, dated 2016):
Where two headings read alike, the source gives them in different places.

Legend:
[1] = MicroPET imaging of U87 MG tumor-bearing nude mice; assay type: in vivo, athymic nude mice; settings: athymic nude, mouse, in vivo, iv, 11.1 MBq, total radioactivity
Experimental: (§1) Athymic nude mice (about 10-20 weeks old, with a body weight of 25-35 g) were obtained from Harlan (Charles River, Mass.). All animal experiments were performed according to a protocol approved by University of Southern California Institutional Animal Care and Use Committee. The U87 MG human glioma xenograft model was generated by subcutaneous injection of 5×10^6 U87 MG human glioma cells into the front flank of athymic nude mice. The tumors were allowed to grow 3-5 weeks until 200-500 mm^3 in volume. Tumor growth was followed by caliper measurements of the perpendicular dimensions.
(§2) MicroPET scans and imaging analysis were performed using a rodent scanner (microPET R4; Siemens Medical Solutions) as previously reported (26). Li, Z., Cai, W., Cao, Q., Chen, K., Wu, Z., He, L., and Chen, X. (2007) ^64Cu-labeled tetrameric and octameric RGD peptides for small-animal PET of tumor αvβ3 integrin expression. J Nucl Med 48, 1162-71. […] Ten minute static scans were acquired at 1, 2, 4, and 20 h post injection. The images were reconstructed by a 2-dimensional ordered-subsets expectation maximum (OSEM) algorithm. For each microPET scan, regions of interest were drawn over the tumor, normal tissue, and major organs on the decay-corrected whole-body coronal images. The radioactivity concentration (accumulation) within the tumor, muscle, liver, and kidneys were obtained from the mean value within the multiple regions of interest and then converted to % ID/g.

[2] = test system: U87 MG human glioma xenograft tumors; test: MicroPET imaging of U87 MG tumor-bearing nude mice; assay type: in vivo, athymic nude mice; settings: for uptake in U87 MG tumors: microPET
Experimental: as §1, §2

[3] = Biodistribution by direct tissue sampling in U87 MG tumor bearing nude mice; settings: athymic nude, mouse, in vivo, 0.37 MBq, total radioactivity
Experimental: All mice were sacrificed and dissected at 20 h after the injection of the tracers. Blood, U87 MG tumor, major organs, and tissues were collected and weighed wet. The radioactivity in the tissues was measured using the gamma counter. The results were presented as percentage injected dose per gram of tissue (% ID/g). For each mouse, the radioactivity of the tissue samples was calibrated against a known aliquot of the injected activity. Mean uptake (% ID/g) for each group of animals was calculated with standard deviations.
To validate the accuracy of small animal PET quantification, we also performed a biodistribution experiment by using the direct tissue sampling technique. The data shown as the percentage administered activity (injected dose) per gram of tissue (% ID/g) in FIG. 19A. Both ^64Cu-AmBaSar-RGD and ^64Cu-DOTA-RGD mainly accumulated in kidneys, liver, stomach, intestine, and tumor. […] This difference was consistent with the excretion pattern from the microPET imaging results.

[4] = test system: U87 MG human glioblastoma cell line (integrin αvβ3-positive); test: Cell uptake study in U87 MG cells; assay type: cell-based; settings: blocking with excess cold cyclic RGD
Experimental: U87 MG human glioblastoma cell line (integrin αvβ3-positive) was obtained from the American Type Culture Collection (ATCC, Manassas, Va.) and maintained under standard conditions according to ATCC as following: The U87 MG glioma cells were grown in Gibco's Dulbecco's medium supplemented with 10% fetal bovine serum (FBS), 100 IU/mL penicillin, and 100 μg/mL streptomycin (Invitrogen Co, Carlsbad, Calif.), at 37° C. in humidified atmosphere containing 5% CO2. The U87 MG glioma cells were grown in culture until sufficient cells were available.
The cell uptake study was performed as described in the literature with some modifications. […] The tumor cells were then washed three times with chilled PBS and harvested by 0.1 N NaOH solution containing 0.5% sodium dodecyl sulfate (SDS). The cell suspensions were collected and measured in the gamma counter.

[5] = Log P of 64Cu-labeled RGD conjugates (1-octanol/PBS); assay type: physicochemical; settings: pH 7.4, read-out: log P (octanol/water partition coefficient)
Experimental: After vigorously vortexing for 10 min, the vial was centrifuged for 5 min to ensure the complete separation of layers. Then, 3×10 μL of each layer was pipetted into other test tubes and radioactivity was measured using a gamma counter (Perkin-Elmer Packard Cobra). The measurement was repeated three times, and Log P values were calculated according to a known formula.

[6] = Metabolic stability in U87 MG tumor-bearing mouse (radio-HPLC of blood and tissue homogenates); assay type: in vivo, athymic nude mouse; settings: 1 h post injection, i.v.
Experimental: The blood was collected and immediately centrifuged for 5 min at 13,200 rpm, and the upper serum solution was added to 100 μL PBS solution containing 50% TFA, followed by mixing and centrifugation for 10 min, and the upper solution was then taken out and filtered for HPLC analysis. Liver, kidneys, and tumor were homogenized using a homogenizer, suspended in 1 mL of PBS buffer, and centrifuged for 10 min at 14,000 rpm, respectively. For each sample, after removal of the supernatant, the solution was added to 100 μL PBS solution containing 50% TFA, followed by mixing and centrifugation for 10 min, and the upper solution was then taken and filtered for HPLC analysis. Radioactivity was monitored using a solid-state radiation detector. The eluent was also collected using a fraction collector (1.5 min/fraction) and the radioactivity of each fraction was measured with the γ counter.

[7] = In vitro stability of 64Cu-labeled RGD conjugates in PBS, FBS and mouse serum; assay type: in vitro ADME; settings: 37° C., 24 h incubation; for remaining at 24 h, 3.7 MBq/mL: read-out: radiochemical purity / tracer remained intact
Experimental: After incubated at 37° C. for 3, 18, and 24 h, an aliquot of the mixture was removed from the PBS solution and the radiochemical purity was determined with HPLC. For the solution of FBS and mouse serum, the aliquots were added to 100 μL PBS with 50% TFA. After centrifugation, the upper solution was taken and filtered for HPLC analysis.

[8] = Biodistribution of radiolabeled BFCs in Balb/c mice; assay type: in vivo
Experimental: The biodistribution of ^64Cu-AmBaSar and ^64Cu-DOTA were assessed in Balb/c mice. Each animal was sacrificed at the time interval 2 h and the organs dissected. The values of percent injected dose/gram (ID/g %) in different organs were compared and illustrated in FIG. 13. The ^64Cu-AmBaSar cleared rapidly from the blood and predominantly through the kidneys. After 2 h, the kidney and liver uptake reached 1.09±0.27, 0.14±0.01% ID/g, respectively, which is consistent with the excretion pattern from the microPET imaging results. The ^64Cu-DOTA cleared through the kidney and liver, with uptake reached 1.28±0.41, 1.25±0.09, respectively, by 2 h.
For biodistribution studies, one group of mice (Balb/c, n=3) was injected intravenously with the radiotracer ^64Cu-AmBaSar (10 μCi, 100 μL). Another group of mice was injected similarly with ^64Cu-DOTA (10 μCi, 100 μL). Activity injected into each mouse was measured in a dose calibrator (Capintec). After inhalation anesthesia, animals were sacrificed at 2 h postinjection. Tissues and organs of interest were separated and weighed. Radioactivity in each organ was measured using a gamma counter, and radioactivity uptake was expressed as % ID/g. Mean uptake (% ID/g) for each group of animals was calculated with standard deviations.

[9] = MicroPET imaging of radiolabeled BFCs in Balb/c mice; assay type: in vivo; settings: between 30 min and 2 hours, micro-PET region of interest quantification
Experimental: MicroPET imaging and biodistribution studies were performed with the non-targeted ^64Cu-AmBaSar and ^64Cu-DOTA complexes to allow a comparison of their base-line organ uptake and clearance properties. After 30 min, the radioactivity quickly cleared from muscle and blood, and mainly localized in the bladder and kidneys. Regarding ^64Cu-DOTA, the radioactivity mainly localized in the bladder, kidneys, and liver.
MicroPET imaging and biodistribution of the radiolabeled BFCs were performed on Balb/c mice to evaluate their in vivo properties. Animals (Balb/c, n=2) were injected with 0.3 mCi ^64Cu-AmBaSar or ^64Cu-DOTA through the tail vein. PET imaging (10-min static scans) was performed using a microPET R4 scanner (Concorde Microsystems, Inc, Knoxville, Tenn.), with 120 transaxial planes and spatial resolution of 1.2 mm, at 30 min and 2 h postinjection. The microPET data were reconstructed using the ordered subsets expectation maximization (OSEM) algorithm using the microPET Manager Software (CTI Concorde Microsystems, Inc, Knoxville, Tenn.). Images were then analyzed using the Acquisition Sinogram Image Processing (ASIPro) software (CTI Concorde Microsystems, Inc, Knoxville, Tenn.).

[10] = Lipophilicity (octanol/water partition coefficient) of 64Cu-AmBaSar and 64Cu-DOTA; assay type: physicochemical; settings: 1-octanol/PBS, pH 7.4
Experimental: Information about the lipophilicity of the ^64Cu-AmBaSar and ^64Cu-DOTA was obtained by measuring their partitioning in a 1-octanol/water system. Counts in samples were used to determine partition coefficients (log P) values, calculated using a known formula. The log P values were measured at pH 7.4 in PBS. The log P value of ^64Cu-AmBaSar is −2.6, and the corresponding value of ^64Cu-DOTA is −2.3. Both ^64Cu-AmBaSar and ^64Cu-DOTA are hydrophilic.
The partition coefficient value was expressed as log P. Log P of ^64Cu-AmBaSar or ^64Cu-DOTA was determined by measuring the distribution of radioactivity in 1-octanol and PBS. A 5 μL sample of ^64Cu-AmBaSar or ^64Cu-DOTA in PBS was added to a vial containing 1 mL each of 1-octanol and PBS. After vortexing for 5 min, the vial was centrifuged for 5 min to ensure complete separation of layers. Then, 5 μL of each layer was pipetted into other test tubes and radioactivity was measured using a gamma counter (Packard). The measurement was repeated three times.

[11] = 2 h postinjection, Balb/c mice, i.v.

For `N=C(N)NCCC[C@@H]1NC(=O)[C@H](CCCCNC(=O)CN2CCN(CC(=O)O)CCN(CC(=O)O)CCN(CC(=O)O)CC2)NC(=O)[C@@H](Cc2ccc(O)cc2)NC(=O)[C@H](CC(=O)O)NC(=O)CNC1=O` [^64Cu-DOTA-RGD, metal not drawn], the tissue uptake at 1 h ([1]; liver uptake) was 2.28 ± 1.08 %ID/g, the tissue uptake at 2 h ([1]; liver uptake) was 2.31 ± 1.34 %ID/g and the tissue uptake at 4 h ([1]; liver uptake) was 2.15 ± 0.9 %ID/g. For the same compound, the tissue uptake at 20 h ([1]; liver uptake) was 2.52 ± 1.43 %ID/g, the tissue uptake at 1 h ([1]; renal uptake) was 1.52 ± 0.46 %ID/g and the tissue uptake at 2 h ([1]; renal uptake) was 1.33 ± 0.23 %ID/g. For the same compound, the tissue uptake at 4 h ([1]; renal uptake) was 1.55 ± 0.61 %ID/g, the tissue uptake at 20 h ([1]; renal uptake) was 1.58 ± 0.13 %ID/g and the “uptake in U87 MG tumors” value ([2]; 1 h p.i.) was 2.03±0.10 % ID/g. The “uptake in U87 MG tumors” value ([2]; 2 h p.i.) was 1.97±0.05 % ID/g, the “uptake in U87 MG tumors” value ([2]; 4 h p.i.) was 1.88±0.29 % ID/g and the “uptake in U87 MG tumors” value ([2]; 20 h p.i.) was 0.88±0.07 % ID/g. For the same compound, the “liver uptake compared with 64Cu-AmBaSar-RGD” value ([2]; mouse, in vivo) was 2-3 times, the tissue uptake at 20 h ([3]; kidneys uptake) was 0.98 ± 0.4 %ID/g and the tissue uptake at 20 h ([3]; liver uptake) was 2.16 ± 0.85 %ID/g. The “binding to U87 MG cells in presence of excess cold cyclic RGD peptide” value [4] was “efficiently blocked”.

Work on `N=C(N)NCCC[C@@H]1NC(=O)[C@H](CCCCNC(=O)c2ccc(CNC34CNCCNCC(N)(CNCCNC3)CNCCNC4)cc2)NC(=O)[C@@H](Cc2ccc(O)cc2)NC(=O)[C@H](CC(=O)O)NC(=O)CNC1=O` [^64Cu-AmBaSar-RGD, metal not drawn] yielded a logP [5] of -2.44 ± 0.12, a tissue uptake at 1 h ([1]; microPET, 1 h p.i., read-out: liver uptake) of 0.89 ± 0.13 %ID/g and a tissue uptake at 1 h ([1]; microPET, 1 h p.i., read-out: renal uptake) of 2.83 ± 0.77 %ID/g. The tissue uptake at 2 h ([1]; microPET, 2 h p.i., read-out: liver uptake) was 0.76 ± 0.13 %ID/g, the tissue uptake at 2 h ([1]; microPET, 2 h p.i., read-out: renal uptake) was 2.68 ± 0.55 %ID/g and the tissue uptake at 4 h ([1]; microPET, 4 h p.i., read-out: liver uptake) was 0.75 ± 0.14 %ID/g. For the same compound, the tissue uptake at 4 h ([1]; microPET, 4 h p.i., read-out: renal uptake) was 2.49 ± 0.5 %ID/g, the tissue uptake at 20 h ([1]; microPET, 20 h p.i., read-out: liver uptake) was 0.64 ± 0.06 %ID/g and the tissue uptake at 20 h ([1]; microPET, 20 h p.i., read-out: renal uptake) was 1.43 ± 0.35 %ID/g. For the same compound, the “uptake in U87 MG tumors” value ([2]; 1 h p.i.) was 2.04±0.14 % ID/g, the “uptake in U87 MG tumors” value ([2]; 4 h p.i.) was 1.87±0.11 % ID/g and the “uptake in U87 MG tumors” value ([2]; 20 h p.i.) was 0.97±0.05 % ID/g. For the same compound, the tissue uptake at 20 h ([3]; direct tissue sampling, 20 h p.i., read-out: kidneys uptake) was 1.51 ± 0.27 %ID/g, the tissue uptake at 20 h ([3]; direct tissue sampling, 20 h p.i., read-out: liver uptake) was 0.55 ± 0.06 %ID/g and the “amount of intact tracer in the blood” value [6] was “approximately 88%”. The “amount of intact tracer in the kidneys” value [6] was ~98%, the “amount of intact tracer in the liver” value [6] was ~98% and the “amount of intact tracer in the tumor” value [6] was ~95%. The “radiochemical purity / tracer remained intact” value ([7]; PBS or FBS) was “more than 97%”, the “radiochemical purity / tracer remained intact” value ([7]; mouse serum) was > 95% and the remaining at 24 h, 3.7 MBq/mL ([7]; mouse serum) was > 95%. The remaining at 24 h, 3.7 MBq/mL ([7]; serum, pH 7.4, PBS or FBS) was > 97% and the “binding to U87 MG cells in presence of excess cold cyclic RGD peptide” value [4] was “efficiently blocked”.

In the case of `O=C([O-])CN1CCN(CC(=O)[O-])CCN(CC(=O)O)CCN(CC(=O)O)CC1.[64Cu+2]` [^64Cu-DOTA], the “liver uptake relative to 64Cu-AmBaSar” value ([8]; 2 h post injection) is reported as “eight times higher”, the kidney uptake [8, 11] is reported as 1.28±0.41 % ID/g and the liver uptake [8, 11] is reported as 1.25±0.09 % ID/g. The “decrease of renal activity” value [9] was 66% and the “log P” value [10] was −2.3.
